These results are taken from patent publication US20210347908A1 (ELPISCIENCE SUZHOU BIOPHARMA, published 2021).

Like-named read-outs stand apart in the source and are kept apart here.

Assay [1] addresses T1, Fc tagged human SIRPβ ECD recombinant protein (human, UniProt O00241 30-371).
T1 construct: range 1-371; cloned range includes the signal peptide; also called hSIRPβ; not shown: human IgG Fc region (hFc) of the pCPC vector
As to the kind of experiment: ELISA. The method in brief: (§1)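 Binding is reported as EC₅₀ from absorbance at 450 nm. Antibodies (hybridoma-derived or chimeric) are incubated with plate-coated antigen at 37° C. for 1 hour, followed by an HRP-conjugated anti-IgG secondary under the same conditions and TMB substrate.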

In assay [2] the target is T2, Fc tagged human SIRPγ ECD recombinant protein (human, UniProt Q9P1W8 29-360).
T2 construct: range 1-360; cloned range includes the signal peptide; also called hSIRPγ; not shown: human IgG Fc region (hFc) of the pCPC vector
Put plainly: ELISA. In a few lines: as §1

Assay [3] deals with T3, Fc tagged human SIRPα v2 ECD recombinant protein (human).
T3 construct: range 1-369; cloned range M1-R369 includes the signal peptide; also called hSIRPα V2
As to the kind of experiment: ELISA. The method in brief: as §1

For assay [4], the target named is T2, Fc tagged human SIRPγ ECD recombinant …. Put plainly: ELISA. In a few lines:
as §1
The source holds these as a separate data set.

The target is the same in assay [5]. As to the kind of experiment: competitive ELISA, biotin-CD47 ECD to coated SIRPγ ECD. How it is done:
For CD47 and SIRPγ interaction blocking activity detection, antibody and biotin labeled soluble human CD47 ECD recombinant protein were co-incubated with ELISA microplate coated human SIRPγ ECD recombinant protein. After washing, horseradish peroxidase labeled streptavidin (HRP-SA, Sigma) was added and incubated at 37° C. for 1 hour. Then, 100 μl/well of TMB solution (Biotechnology) was added. After incubation for 15 minutes at room temperature, the reaction was stopped by the addition of 50 μl of 1N HCl. OD 450 nm was read. Blocking ratio and IC₅₀ was calculated. In comparison with other known anti-SIRPα antibodies, 022, 050, 055, and 074 cannot block CD47 and SIRPα interaction. In particular, all of the antibodies of the invention cannot block CD47 and SIRPγ interaction.

For assay [6], the target named is T4, Fc tagged human SIRPα v1 ECD recombinant protein (human, UniProt P78324 31-370).
T4 construct: range 1-370; cloned range M1-R370 includes the signal peptide; also called hSIRPα V1; not shown: human IgG Fc region (hFc) of the pCPC vector
As to the kind of experiment: ELISA. The procedure: (§2) Binding specificity of the purified hybridoma antibodies against SIRP family members was detected by ELISA assay using recombinant proteins of Fc tagged human SIRPα v1 ECD, human SIRPα v2 ECD, human SIRPβ ECD and human SIRPγ ECD. Briefly the antibodies were incubated with ELISA microplate coated antigens at 37° C. for 1 hour. After washing, horseradish peroxidase (HRP) labeled anti-mouse or anti-human IgG 2nd Ab (Sigma) was added and incubated at 37° C. for 1 hour. Then, 100 μl/well of TMB solution (Biotechnology) was added. After incubation for 15 minutes at room temperature, the reaction was stopped by the addition of 50 μl of 1N HCl. OD 450 nm was read and EC₅₀ was calculated. Other than 060 and HEFLB, all of the antibodies as tested can bind with both human SIRPα v1 and SIRPα v2. 060 and HEFLB can bind with human SIRPα v1 but not v2. Other than 055, all of the antibodies as tested can bind with human SIRPβ. In comparison with other known anti-SIRPα antibodies, only 022, 035 and 050 can bind with human SIRPγ weakly.

The target in assay [7] is T1, Fc tagged human SIRPβ ECD recombinant …. As to the kind of experiment: ELISA. The procedure: as §2
This is another data set of the same source.

Assay [8] concerns the target T2, Fc tagged human SIRPγ ECD recombinant …. As to the kind of experiment: ELISA. How it is done:
as §2
The source holds these as a separate data set.

For assay [9], the target named is T3, Fc tagged human SIRPα v2 ECD …. Put plainly: ELISA. How it is done:
as §2
This is another data set of the same source.

In assay [10] the target is T5, 6×His tagged C57BL/6 mouse SIRPα ECD recombinant protein (mouse (C57BL/6), UniProt P97797 32-373).
T5 construct: extracellular domain; bought; also called mSIRPα (C57BL/6); mouse SIRPα (C57BL/6) ECD
T5 sequence: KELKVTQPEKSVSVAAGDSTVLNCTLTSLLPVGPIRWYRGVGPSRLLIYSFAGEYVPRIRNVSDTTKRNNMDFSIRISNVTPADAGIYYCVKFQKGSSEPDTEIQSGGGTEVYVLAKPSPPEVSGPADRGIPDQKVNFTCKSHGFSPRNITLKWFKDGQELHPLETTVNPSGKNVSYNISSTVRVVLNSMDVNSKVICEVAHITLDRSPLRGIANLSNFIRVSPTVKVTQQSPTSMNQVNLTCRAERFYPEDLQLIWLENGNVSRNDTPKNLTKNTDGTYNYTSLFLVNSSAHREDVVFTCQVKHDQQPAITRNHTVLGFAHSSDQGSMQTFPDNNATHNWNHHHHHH
Put plainly: ELISA on coated mouse SIRPα (C57BL/6) ECD [Continued) F].

The target in assay [11] is T6, 6×His tagged human SIRPα v2 ECD recombinant protein (human). As to the kind of experiment: SPR (Biacore). The procedure: (§3) Anti-SIRPα chimeric antibodies were characterized for binding affinity against human SIRPα v1, human SIRPα v2 and C57BL/6 mouse SIRPα using Biacore (GE). Briefly the antibodies to be tested were captured to CM5 chip (GE) using Human Antibody Capture Kit (GE). The antigens of 6×His tagged human SIRPα v1, human SIRPα v2 and C57BL/6 mouse SIRPα ECD recombinant proteins were serially diluted for multiple doses and injected at 30 μl/min for 180 s. Buffer flow was maintained for dissociation of 400 s. 3 M MgCl₂ was used for chip regeneration. The association and dissociation curves were fit with 1:1 binding model, and the Ka/Kd/KD values for each antibody were calculated.
(§4) hu035.01, the first version of humanized 035, was characterized by FACS assay using CHOK1-human SIRPα v1-1B4 cells, ELISA assay using Fc tagged human SIRPα v2 ECD recombinant protein and SPR analysis using the antigen of 6×His tagged human SIRPα v2 ECD recombinant protein (refer to methods described in Example 3.4, Example 3.3 and Example 4.3). […] In particular, hu035.01 cannot be detected to bind with C57BL/6 mouse SIRPα ECD in ELISA assay possibly due to reduced binding activity (FIG. 5B).

For assay [12], the target named is T6, 6×His tagged human SIRPα v2 ECD …. Put plainly: SPR (Biacore), antibody captured, 6×His tagged human SIRPα v2 ECD as analyte. The procedure:
as §3, §4

B1: chimeric antibody 022c (antibody, V domains shown)
VH: QIQLVQSGPELKKPGETVKISCKASGYTFTDYAMHWVKQAPGKGLKWMGWKNTETGESTYAEDFKGRFAFFLETSASTAYLQINNVKNEDTATYFCARGGYGSNYVMDYWGQGTSVIVSS
VL: DIQMTQSSSSFSVSLGDRVTITCKASEDIYNRLAWYQQKPGNAPRLLISGATSLETGVPSRFSGSGSGKDYTLSITSLQTEDVATYYCQQYWNSPRTFGGGTKLEIK
For the molecule B1, the EC50 amounted to 80 pM in assay [1], 18700 pM in assay [2], 110 pM in assay [3] and 18700 pM in assay [4].

B2: reference antibody KWAR23 (antibody, V domains shown)
VH: EVQLQQSGAELVKPGASVKLSCTASGFNIKDYYIHWVQQRTEQGLEWIGRIDPEDGETKYAPKFQDKATITADTSSNTAYLHLSSLTSEDTAVYYCARWGAYWGQGTLVTVSS
VL: QIVLTQSPAIMSASPGEKVTLTCSASSSVSSSYLYWYQQKPGSSPKLWIYSTSNLASGVPARFSGSGSGTSYSLTISSMEAEDAASYFCHQWSSYPRTFGAGTKLELK
Turning to B2, the IC50 in assay [5] came out at 1000 pM. For the same molecule, the EC50 in assay [1] stood at 80 pM; in assay [2] it was 50 pM; in assay [3], 90 pM; in [6], 170 pM; in assay [7], 180 pM; in [8], 150 pM. Moreover, the EC50 came out at 220 pM in [9] and 50 pM in assay [4].

B3: chimeric antibody 035c (antibody, V domains shown)
VH: QIQLVQSGPELRKPGETVKISCKASGYSFTNYAMNWVKQAPGKVLKWMGFINTYTGEPTYADDFKGRFAFSLETSASTAYLQINNLKNEDTATYFCTRTRGYYDFDGGAFDYWGQGTSLTVSS
VL: DIVMTQSQKFMSTSIGDRVSVTCKASQNVGTHLAWYQQKPGQSPKALIFSASYRYIGVPDRFTGSGSGTDFTLTITNVQSEDLAEYFCQQYNTYPLTFGAGTKLELK
With B3, the “EC50 (read off the curve)” value in [10] is roughly 0.3 µg/mL. Further, the Kd in assay [11] turned out to be 610 pM. For the same molecule, in assay [12], the koff came out at 5.73e-05 s⁻¹. Also, the kon in assay [12] worked out at 93500 M⁻¹ s⁻¹. In addition, the EC50 in assay [1] stood at 80 pM; in assay [2] it was 6110 pM; in assay [3], 80 pM; in assay [4], 6110 pM.

B4: reference antibody 29-AM4-5 (antibody, V domains shown)
VH: EVQLVESGGGLVQPGGSLRLSCAASGFNISYYFIHWVRQAPGKGLEWVASVYSSFGYTYYADSVKGRFTISADTSKNTAYLQMNSLRAEDTAVYYCARFTFPGLFDGFFGAYLGSLDYWGQGTLVTVSS
VL: DIQMTQSPSSLSASVGDRVTITCRASQSVSSAVAWYQQKPGKAPKLLIYSASSLYSGVPSRFSGSRSGTDFTLTISSLQPEDFATYYCQQAVNWVGALVTFGQGTKVEIK
As to B4, the IC50 in assay [5] turned out to be 3400 pM. Moreover, the EC50 was determined as 80 pM in assay [1]; 110 pM in [2]; 80 pM in [3]; 150 pM in [6]; 210 pM in assay [7]; 220 pM in [8]. Further, the EC50 came out at 200 pM in assay [9] and 110 pM in [4].
